This is an account of results in article PMC6430685 (Nature chemical biology, 2019).

No end group written: not given here. *: point of attachment. FITC = O=C1OC2(c3ccc(O)cc3Oc3cc(O)ccc32)c2ccc(NC(=S)*)cc21; Ahx = NCCCCCC(=O)O

In the assay the target is Human full-length (1-192) wild type BAX (human, UniProt Q07812 1-192). Put plainly: fluorescence polarisation. (In general: Fluorescence polarisation rises when a labelled molecule tumbles more slowly, as on binding a larger partner.)
Chain of Human full-length (1-192) wild type BAX (Q07812 whole entry): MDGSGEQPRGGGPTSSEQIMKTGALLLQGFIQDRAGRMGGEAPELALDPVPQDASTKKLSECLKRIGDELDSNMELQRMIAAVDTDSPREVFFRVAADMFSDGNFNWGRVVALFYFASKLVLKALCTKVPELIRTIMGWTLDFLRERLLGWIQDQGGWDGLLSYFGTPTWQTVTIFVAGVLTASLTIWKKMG

Turning to {FITC-Ahx}-CEALKKALRRHRFLWQRRQRA [vMIA peptide, FITC-Ahx-CEALKKALRRHRFLWQRRQRA], the binding result is recorded as “binds”.
